From patent publication US9035028B2, “Temperature sensitive conjugate compositions” (Emory University, priority 2010, dated 2015)

Columns and labels:
[1] = Circular dichroism (CD) spectra and thermal transition profile; type: physicochemical
Procedure: The mathematical fitting of the CD data allowed the determination of the transition temperature (Tt) resulting from conformational change of EMP as the temperature is increased. The mathematical fitting of the CD data to the van't Hoff equation allowed the determination of the transition temperature (Tt) resulting from conformational change of EMP and EMP-scFv as the temperature is increased.
Circular dichroism (CD) spectra were recorded on a Jasco J-810 spectropolarimeter equipped with a PFD-425S Peltier temperature control unit in 0.1 cm sealed quartz cells at concentrations of 7.5 μM (EMP), 8.4 μM (scFv) and 4.1 μM (EMP-scFv) in 50 mM sodium phosphate buffer, pH 7.4. Temperature/wavelength CD-scans were performed within the temperature range from 5° C. to 35° C. with equilibration for 10 min at each temperature. Spectra were obtained from 260 to 190 nm at a resolution of 0.5 nm and at a scanning speed of 50 nm/min. The CD curves represented the average of five measurements and were smoothed using the means-movement method on the interval analysis of the spectral manager program. CD data are reported as mean residue ellipticity ([θ], deg cm^2 dmol^−1). Thermal transition curves were plotted by the mean residue ellipticity as a function of temperature for the disappearance of the random coil and the appearance of the β-turn structure.

human platelets = experiment: 96-well plate light transmission aggregometry, ADP-driven platelet aggregation; type: cell-based; conditions: 22° C.
Procedure: Light transmission aggregometry was performed using a Biorad Benchmark plate reader. After incubation of human PRP with EMP-scFv (15 μg/mL), vehicle (PBS) or the GPIIb/IIIa blocker abciximab (10 μg/mL) (Reopro®, Eli Lilly, Indianapolis, U.S.A.) for 10 minutes at different temperatures, the aggregation was induced by the addition of 2 or 20 μM ADP with vigorous stirring in a 96-well plate. The absorbance was determined at 595 nm every 15 seconds for 16 minutes between vigorous shaking at 22° C. and 37° C.

platelet aggregates = experiment: Flow chamber: binding to platelet aggregates under physiological flow; type: cell-based; conditions: hypothermic temperatures
Procedure: Temperature-dependent binding of EMP-scFv to platelet aggregates was analysed using a flow chamber system. Vitrotubes rectangular capillaries (0.20×2.0 mm) were washed with 70% ethanol, dried, and coated overnight with 10 μg/ml of collagen (Collagen Reagent Horm Nycomed). Liquid was entered into the capillary via capillary drag. Capillaries were blocked for 1 hour with 1% BSA and then washed with PBS. The capillary was connected on the one end to a reservoir and on the other end to a Harvard medical pump by tubing. Before connecting the capillary all tubes were flushed with PBS in order to avoid air bubbles entering the capillary. PRP was then drawn into the capillary and numerous platelet aggregates were formed within 10 minutes. The capillary was then washed with PBS via the pump. In the meantime, the EMP-scFv (50 μg/mL) was incubated with PENTA-HIS Alexa Fluor 488 (Qiagen) antibody for 10 minutes in a final volume of 1 mL, and then drawn into the capillary containing platelet aggregates at physiological flow rate of 60s^−1. The capillary was then imaged with a 20× magnification objective, after which DIC and fluorescent images were captured using Olympus IX81 microscope with XM10 camera. The experiments were conducted at 22° C. and 37° C.

B1: EMP-scFv: fusion of elastin mimetic polypeptide (EMP) and activation-specific GPIIb/IIIa-blocking single-chain antibody; 704 amino acids, approximately 70 kDa (protein)
chain: MAVPAVGIPAVGIPAVGIPAVGIPAVGIPAVGIPAVGIPAVGIPAVGIPAVGIPAVGIPAVGIPAVGIPAVGIPAVGIPAVGIPAVGIPAVGIPAVGIPAVGIPAVGIPAVGIPAVGIPAVGIPAVGIPAVGIPAVGIPAVGIPAVGIPAVGIPAVGIPAVGIPAVGIPAVGIPAVGIPAVGIPAVGIPAVGIPAVGIPAVGIPAVGIPAVGIPAVGIPAVGIPAVGIPAVGIPAVGIPAVGIPAVGIPAVGIPAVGIPAVGIPAVGIPAVGIPAVGIPAVGIPAVGIPAVGIPAVGIPAVGIPAVGIPAVGIPAVGIPAVGIPAVGIPAVGIPAVGIPAVGIPAVGIPAVGIPAVGIPAVGIPAVGIPAVGIPAVGIPAVGIPAVGIPAVGIPAVGIPAVGIPGGGGSMMAEVQLVESGGGLVQPGGSLRLSCAASGFMFSRYAMSWVRQAPGKGPEWVSGISGSGGSTYYADSVKGRFTVSRDNSKNTLYLQMNSLRAEDTAVYYCARIFTHRSRGDVPDQTSFDYWGQGTLVTVSSGSASAPKLEEGEFSEARVSSELTQDPAVSVALGQTVRITCQGDSLRNFYASWYQQKPGQAPTLVIYGLSKRPSGIPDRFSASSSGNTASLTITGAQAEDEADYYCLLYYGGGQQGVFGGGTKLTVLRQPKAAPSVTLFPPSSAAAGSEQKLISEEDLNSHHHHHH
transition temperature (Tt), disappearance of the random coil ([1]; CD data at 200 nm): 15 °C
transition temperature (Tt), appearance of the β-turn structure ([1]; CD data at 215 nm): 28 °C
temperature at which structural change and hydrophobic collapse were completed ([1]; thermal transition curve): higher than 35 °C
ADP-driven platelet aggregation (human platelets): effective inhibition
binding to platelet aggregates under flow (platelet aggregates): induced binding
